In patent publication US20070037246A1 (LIFESENSORS, published 2007):

Target: 6xHis-CTHS-GFP fusion protein (yeast (SUMO/Smt3 part))
Test: mixing of purified proteins in solution, complex shown by Ulp1 cleavage (FIG. 7A)
Procedure: FIG. 7A depicts the experimental results obtained when combining NTHS and CTHS-GFP in solution, resulting in assembly and formation of a cleavable complex. 6xHis-CTHS-GFP fusion protein purified from E. coli was incubated with SUMO hydrolase Ulp1 and 6xHis-NTHS (lanes […]), with 6xHis-NTHS (lanes 1-3) or Ulp1 (lanes 7-9). Release of free GFP can be observed only when all the components are present in the reaction mix. […] Furthermore, purification tags such as, but not limited to 6xHis, GST, MBP, a sequence facilitating covalent coupling to solid support such as Cys residue, may be attached to either the amino- and/or carboxy-termini of NTHS.

B1: 6xHis tagged NTHS (other)
chain: MGHHHHHHGSDSEVNQEAKPEVKPEVKPETHINLKVSDGSSEIFFKIKKTTPLRRLMEAFAK
notes: Purified from E. coli and used in solution in the reconstitution and cleavage experiments; also called 6xHis-NTHS
B1: binds.
